The test has as its target T1, human HSP70 substrate-binding domain (residues 386–616) (human, UniProt P0DMV8 386-616).
T1 construct: Cloned into pET25 between NdeI and XhoI; The His6 tag was retained for crystallisation; A selenomethionine-derivatised form was used for phasing; also called HSP70-SBD; HSP70 SBD; source: E. coli BL21 Star (DE3), purified (Ni-NTA; size-exclusion chromatography when necessary); not shown: His6, N-terminal, kept
Description: crystal structure; co-crystallised by hanging drop vapour diffusion; 5 mM NRLLLTG mixed with 400 µM HSP70 (386–616), preheated to 42°C for 15 min and cooled to room temperature; 0.1 M Bis-Tris pH 5.5, 0.2 M Li2SO4, PEG3350; 2 Å, space group C2, two complexes per asymmetric unit. As to conditions: both partners purified.

T1 sequence (P0DMV8 386-616): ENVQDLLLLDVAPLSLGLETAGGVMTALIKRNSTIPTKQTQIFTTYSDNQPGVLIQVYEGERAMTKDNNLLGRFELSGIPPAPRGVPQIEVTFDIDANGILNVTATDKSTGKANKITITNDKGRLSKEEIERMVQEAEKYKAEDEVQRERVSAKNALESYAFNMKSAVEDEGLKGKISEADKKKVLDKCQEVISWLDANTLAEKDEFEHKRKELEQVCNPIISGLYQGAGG

B1: NRLLLTG peptide (peptide)
peptide: NRLLLTG
notes: hepta-peptide model substrate used in earlier DnaK structural analyses; Residues of the peptide are numbered 1-7 with the suffix p (Leu5p); also called hepta-peptide model substrate; NRLLLTG substrate peptide; source: bought: Biomatik
For the molecule B1, the binding result is “binds”.

The record behind these values is paper PMC4110032, “Crystal Structure of the Stress-Inducible Human Heat Shock Protein 70 Substrate-Binding Domain in Complex with Peptide Substrate” (PLoS ONE, 2014).
